Measured values reported in patent publication US20220119513A1 (ZOETIS SERVICES, published 2022).
Substitutions are numbered along the chain they refer to. Read-outs that look alike come from different tables or passages of the source. Values belong to the binder of their own block, whether it stands above or below them.

Assays:
TGFβ1 (R&D Systems) [1] = assay: cell-based or functional assay
TGFβ1 (R&D Systems) [2] = target: T1, TGFβ1 (R&D Systems); assay: SPR, TGFβ on chip
T1 construct: also called TGFB1
Source text: (§1) To avoid affinity differences associated with differential surface preparation that can occur when immobilizing antibodies to surfaces, TGFβ1, TGFβ2, and TGFβ3 (R&D Systems) were directly conjugated to the individual surface. Immobilization was obtained by amine coupling […] using N-hydroxysuccinimide (NHS)/1-Ethyl-3-(3-dimethylaminopropyl) carbodiimide (EDC) chemistry. Chips were quenched with ethanolamine and the affinity with which all candidate mAbs bound to the immobilized TGFβ was evaluated. All curves were fit to a 1:1 model. Affinities <10⁻¹¹ are below the lower limit of quantitation of detection for the instrument.

TGFβ3 (R&D Systems) [3] = target: T2, TGFβ3 (R&D Systems) (Homo sapiens (Human), UniProt P10600 301-412, Active TGFβ3 is a disulfide-linked homodimer of this chain; one copy is given.); assay: SPR, TGFβ on chip
T2 construct: also called TGFB3
T2 sequence: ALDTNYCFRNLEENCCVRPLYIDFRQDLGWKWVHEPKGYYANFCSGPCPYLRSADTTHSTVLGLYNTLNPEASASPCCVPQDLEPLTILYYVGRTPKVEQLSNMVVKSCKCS
Source text: as §1

TGFβ2 (R&D Systems) [4] = target: T3, TGFβ2 (R&D Systems); assay: SPR, TGFβ on chip
T3 construct: also called TGFB2
T3 sequence (P61812 303-414, species assumed, looked up): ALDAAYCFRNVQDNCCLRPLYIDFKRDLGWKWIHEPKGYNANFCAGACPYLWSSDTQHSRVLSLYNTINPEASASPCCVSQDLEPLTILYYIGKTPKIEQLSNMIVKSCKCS
Source text: as §1

human TGFβ1 (PeproTech) = human TGFβ1 (PeproTech) (human, UniProt P01137 279-390); assay: HDX-MS epitope mapping, TGFβ1 with and without mAb
Experimental: Hydrogen Deuterium Exchange (HDX) experiments were used to determine the epitopes on TGFβ1 to which each antibody series binds. This method establishes the peptide level epitope on TGFβ1 targeted by each mAb by HDX mass spectrometry. For each mAb analysis, TGFβ1 is incubated in deuterium oxide in the presence and absence of mAb, is digested, and fragments are then analyzed and compared for hydrogen/deuterium exchange via mass spectrometry.
More specifically, the method was carried out as follows: One milligram of TGFβ1 was reconstituted in 500 μL control buffer (50 mM phosphate, 100 mM sodium chloride at pH 7.4). […] The mass spectra were recorded in MS only mode.
For pepsin digestion, 10 μg of human TGFβ1 in 80 μL control buffer (50 mM phosphate, 100 mM sodium chloride at pH 7.4) was denatured by adding 160 μL of 8 M urea, 0.85 M TCEP buffer (final pH is 4.0) and incubating the mixture for 3 min at 6° C. Then, the mixture was subjected to pepsin digestion using an-house packed pepsin column (2.1×30 mm) at 11° C. and the resultant peptides was analyzed using a UPLC-MS system comprised of a Waters Acquity UPLC coupled to a Q Exactive™ Hybrid Quadrupole-Orbitrap Mass Spectrometer (Thermo). […]

TGFβ3 (R&D Systems) [5] = target: T2, TGFβ3 (R&D Systems); assay: cell-based or functional assay
TGFβ1 (R&D Systems) [6] = target: T1, TGFβ1 (R&D Systems); assay: SPR full titration
TGFβ3 (R&D Systems) [7] = target: T2, TGFβ3 (R&D Systems); assay: SPR full titration
TGFβ2 (R&D Systems) [8] = target: T3, TGFβ2 (R&D Systems); assay: SPR full titration
TGFβ1 (R&D Systems) [9] = target: T1, TGFβ1 (R&D Systems); assay: cell-based or functional assay; remark: listed apart in the source
TGFβ3 (R&D Systems) [10] = target: T2, TGFβ3 (R&D Systems); assay: cell-based or functional assay; remark: listed apart in the source
TGFβ2 (R&D Systems) [11] = target: T3, TGFβ2 (R&D Systems); assay: cell-based or functional assay
TGFβ1 (R&D Systems) [12] = target: T1, TGFβ1 (R&D Systems); assay: cell-based or functional assay; remark: listed apart in the source
TGFβ3 (R&D Systems) [13] = target: T2, TGFβ3 (R&D Systems); assay: cell-based or functional assay; remark: listed apart in the source
TGFβ2 (R&D Systems) [14] = target: T3, TGFβ2 (R&D Systems); assay: cell-based or functional assay; remark: listed apart in the source
TGFβ1 (R&D Systems) [15] = target: T1, TGFβ1 (R&D Systems); assay: cell-based or functional assay; remark: listed apart in the source
TGFβ1 (R&D Systems) [16] = target: T1, TGFβ1 (R&D Systems); assay: SPR full titration; remark: listed apart in the source
TGFβ3 (R&D Systems) [17] = target: T2, TGFβ3 (R&D Systems); assay: SPR full titration; remark: listed apart in the source

T1 sequence (P01137 279-390): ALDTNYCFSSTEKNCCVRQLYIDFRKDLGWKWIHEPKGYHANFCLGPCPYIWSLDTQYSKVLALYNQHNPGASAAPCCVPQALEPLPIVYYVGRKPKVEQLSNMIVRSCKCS
human TGFβ1 (PeproTech), sequence (P01137 279-390 limits assumed): as the sequence (P01137 279-390) above

B1: 04H09 (mouse) (antibody, V domains shown)
VH: QVQLQQSGAELVKPGASVKISCKASGYAFSSSWMNWVKQRPGKGLEWIGQIYPGDGDTNYNGKFKGKATLTADKSSSTAYMQLSSLTSEDSAVYFCARHYDGSTDYWGQGTTLTVSS
VL: DIQMTQSPASLSVSVGETVTITCRASENIYSNLAWYQQKQGKSPQLLVYAATNLADGVPSRFSGSGSGTQYSLKINSLQSEDFGSYYCQHFWGTPYTFGGGTKLEIK
notes: mouse IgG, kappa, purified from hybridoma; also called mouse 04H09 monoclonal antibody; 04H09 (murine)
CMVIC pSmad-3, IC50 (TGFβ1 (R&D Systems) [1]): 4.66 nM
Kd (TGFβ1 (R&D Systems) [2]): 0.0443 nM
Kd (TGFβ3 (R&D Systems) [3]): 1.26 nM
Kd (TGFβ2 (R&D Systems) [4]): 7.13 nM
binding result (human TGFβ1 (PeproTech)): binds

B2: chi04H09 (mouse-dog) (antibody, V domains shown)
VH: B1 VH
VL: DIQMTQSPASLSVSVGETVTITCRASENIYSNLAWYQQKQGKSPQLLVYAATNLADGVPSRFSGSGSGTQYSLKINSLQSEDFGSYYCQHFWGTPYTFGGGTKLEIKR
notes: also called mouse:canine 04H09 chimera
CMVIC pSmad-3, IC50 (TGFβ1 (R&D Systems) [1]): 3.5 nM
CMVIC pSmad-3, IC50 (TGFβ3 (R&D Systems) [5]): 66.5 nM
Kd (TGFβ1 (R&D Systems) [2]): 4.01 nM
Kd (TGFβ3 (R&D Systems) [3]): 4.64 nM
Kd (TGFβ2 (R&D Systems) [4]): 27.7 nM

B6: Can-SL501_VH3/Can-SL501-VL1 (antibody, V domains shown)
VH: EVQLVESGGDLVKPGGSLRLSCVASGFTFSSYGMHWVRQAPGKGLQWVAVISYDGSIKYYADAVKGRFTISRDNAKNTLYLQMNSLRAEDTAVYYCARTGEYSGYDTDPQYSWGQGTTVTVSS
VL: EIVMTQSPASLSLSQEEKVTITCRASQGIGDDLGWYQQKPGQAPKLLIYGTSTLQSGVPSRFSGSGSGTDFSFTISSLEPEDVAVYYCLQDSNYPLTFGAGTK
notes: caninized IgG; constant regions not restated; also called ZTS-501
CMVIC pSmad-3, IC50 (TGFβ1 (R&D Systems) [15]): 4.91 nM
Kd (TGFβ1 (R&D Systems) [16]): 0.0218 nM
binding result (TGFβ3 (R&D Systems) [17]): no binding

Other lines, results leading:

Kd (TGFβ1 (R&D Systems) [6]): 5.05 nM
Kd (TGFβ3 (R&D Systems) [7]): 0.223 nM
Kd (TGFβ2 (R&D Systems) [8]): 0.586 nM
pSmad-3, IC50 (TGFβ1 (R&D Systems) [9]): 1.52 nM
pSmad-3, IC50 (TGFβ3 (R&D Systems) [10]): 1.11 nM
pSmad-3, IC50 (TGFβ2 (R&D Systems) [11]): 11 nM
B3: mHcLb (antibody, V domains shown)
VH: QVQLEESGPELVRPGASVKLSCKASGYIFITYWMNWVKQRPGQGLEWIGQIFPASGSTNYNEMFEGKATLTVDTSSSTAYMQLSSLTSEDSAVYYCARGDGNYALDAMDYWGQGT
VL: DIVLTQTPASLAVSLGQRATISCRASESVDSYGNSFMHWYQQKSGQPPKLLIYLASNLESGVPARFSGSGSRTDFTLTIDPVEADDAATYYCQQNNEDPLTFGAGTK
notes: murine antibody; also called 1D11; mHcLb (murine)

CMVIC pSmad-3, IC50 (TGFβ1 (R&D Systems) [12]): 69.7 nM
CMVIC pSmad-3, IC50 (TGFβ3 (R&D Systems) [13]): 10.1 nM
CMVIC pSmad-3, IC50 (TGFβ2 (R&D Systems) [14]): 121 nM
B4: felHclb 1-1WMN (antibody, V domains shown)
VH: QVLLVQSGAEVRTPGASVKIFCKASGYIFITYWMNWVRQSPAQGLEWMGSIFPASGSTSYAQKFQGRLTLTADTSTNTAYMELSSLRSADTAMYYCARGDGNYALDAMDYWGQGTSVTVSS
VL: EIQMTQSPSSLSASPGDRVTITCRASESVDSYGNSFMHWYQQKPGKVPKLLIYLASNLESGVPSRFSGSGSGTDFTLTISSLEPEDAATYYCQQNNEDPLTFGAGT

CMVIC pSmad-3, IC50 (TGFβ1 (R&D Systems) [12]): 0.35 nM
CMVIC pSmad-3, IC50 (TGFβ3 (R&D Systems) [13]): 0.53 nM
CMVIC pSmad-3, IC50 (TGFβ2 (R&D Systems) [14]): 1.99 nM
B5: felHclb 1-1xWMN (antibody, V domains shown)
VH: B4 VH with S50Q, S59N, A61N, Q62E, K63M, Q65E
VL: B4 VL
